B1: MLL5 (parent)
chain: TYLCERCQPRNLDKERAVLLQRRK
B2: LYSMD4 (parent)
chain: LLQRELAQEDSLNKLALQYGCKVA

Variants of: B1
Assay: protein stability index of a GFP-peptide fusion (GPS, HEK-293T) (PSI 1-6); higher = more stable
Details: c terminus: a fixed tail appended
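Further: lentivirally expressed fusions sorted by FACS into six bins by GFP to DsRed ratio, PSI derived from sequencing read proportions per bin multiplied by bin number.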

Protein stability index, by site and new letter:
E15: S 2.46; K 3.21; L 2.05; C 1.45; N 1.6
Q8: T 2.72; W 4.94; S 1.14; F 2.29; G 2.36; R 2.44; M 1.67
Y2: G 2.78; T 2.41; I 2.77; C 1.76
V18: Q 2.19; D 2.73; C 2.11; H 2.16
P9: H 1.97; F 2.15; L 2.69; N 3.62; G 2.68; C 2.76; S 2.27; M 2.08
L20: S 1.9; C 2.3; T 1.58
R6: I 2.07; Q 2.53; N 2.81; Y 2.83; W 1.53
L12: V 2.22; H 1.98; F 2.11; T 2.63
R23: W 2.39; N 2.36
R10: W 1.66; L 1.83; H 1.72
K14: Q 2.23; G 1.77; T 3.29
A17: F 2.07; N 2.65; D 2.25
K24: E 2.25; Q 2.65; I 1.6; T 2.28; L 2.17
C7: V 3.32; L 3.12; A 4.59; P 3.94; S 4.63; R 4.03
E5: D 2.87; T 1.61; Q 1.76; N 1.94
L3: H 2.44; T 1.98; F 1.82; I 1.55; M 2.02; K 2.83; A 2.33; E 3
T1: M 1.39; E 1.47; I 1.93; G 1.82; K 2.48; H 2.18
R22: C 2.08; A 2; G 1.98; K 2.03; Y 1.97; M 2.18
L19: V 1.96; C 2.03; T 2.07; A 1.76
N11: H 2.82; S 2.32
C4: L 2.71; S 3.95
R16: W 1.69; T 2.25; H 2.61; Y 1.79; S 1.36; L 3.06
D13: H 2.64; E 3.13; F 1.78; C 2.24; N 2.47; P 1.92; I 2.23
Q21: Y 2.04; T 1.81; K 2.64; R 2.51; E 2.09; C 2.02

Variants of: B2
Assay: as above
Details: c terminus: a fixed tail appended

Protein stability index, by site and new letter:
K22: H 3.15; D 2.08; T 1.32; E 3.75; N 2.65; L 1.62; R 1.29; A 2.7; G 2.93; P 3.45; Y 1.35; Q 2.21; S 2.2; I 1.78
N13: K 1.94; Q 1.38; T 1.3; F 1.65; P 1.95; G 1.23; E 1.65; C 2.49; S 1.84; D 1.03; W 1.8; R 2.23
C21: G 2.66; M 1.47; N 3.29; E 3.43; H 2.89; P 2.59; K 2.63; S 2.49; T 3.03; V 1.85; Q 2.98; I 1.91; L 1.95; R 2.54
Q18: Y 2.22; E 2.65; V 2.25; M 1.72; W 2.51; N 3.62; T 1.18; I 2.4; A 1.65; S 1.74; P 2.95; K 2.42
A16: S 1.98; I 2.66; E 1.65; G 2.18; Q 1.86; H 3.4; K 2.48; Y 1.26; N 1.98; T 1.78; R 1.9; D 3.12
A24: T 2.19; G 2.1; P 2.64; Y 2.75; C 3.03; R 1.95; H 1.03; V 3.02; N 1.98; W 4.48; D 2.37; K 1.82
S11: I 1.04; G 2.25; R 2.65; C 1.79; H 2.01; A 1.76; K 2.01; P 1.48; M 2.39; T 1.38; Y 2.28; D 1.88
Y19: P 3.28; V 2.02; Q 3.78; S 3.13; L 2.34; R 1.85; I 1.59; F 2.06; T 3.17; M 2.02; N 3.4; D 4.57; K 2.11; A 3.17; C 1.66
V23: L 2.04; Y 2.45; T 2.58; P 3.4; A 3.18; W 2.34; M 1.75; F 2.96; I 1.89; H 2.77; N 3.62; C 1.83; S 2.9; E 3.4; R 2.47; G 2.35; K 2.92
L12: P 3.54; M 1.97; T 3.48; Y 2.38; H 3.65; W 1.23; F 2.33; K 2.02; E 3.83; N 3.52; C 1.72; S 3.54; A 2.5; R 2.49; I 2.06; D 4.13; G 3.39; V 2.31
L17: K 2.5; Y 1.18; E 1.82; C 1.49; G 2.98; I 1.45; P 2.98; F 3.31; W 2.65; A 1.84; T 1.09; Q 2.12; V 2.06; H 2.29; N 1.57
D10: P 1.86; K 1.86; I 1.04; Y 1.82; Q 2.67; H 1.22; G 1.9; L 2.1; T 1.92; E 1.83; F 1.46; R 1.68
L15: S 2.88; F 1.07; Q 3.65; P 3.97; I 2.11; V 1.62; M 2.85; D 4.51; K 3.1; C 2.34; W 1.2; N 3.75; H 2.67; T 2.93; Y 2.27; G 3.11
G20: V 1.31; E 1.7; P 2.66; C 1.65; F 1.13; N 2.37; H 3.73; M 3.62; D 2.94; A 1.09; K 1.62; S 1.72; W 3.05; I 2.42; Y 1.74; Q 4.53
E9: I 2.69; H 2.54; Y 1.9; G 1.28; K 1.35; W 1.02; R 1.94; P 1.63; L 3.17; N 2.4; M 1.85; Q 2.2
K14: H 2.07; Y 2.06; W 3.01; S 1.75; R 1; F 2.4; N 1.86; D 2.23; G 2.91; C 2.37; Q 2.22; T 1.66
